Earlier results, collected in patent US20250302913A1, “LACRIPEP PROMOTES NEUROREGENERATION AND MAINTAINS EPITHELIAL PROGENITOR CELL IDENTITY” (The Regents of The University of California, priority 2022, published 2025).

T1: syndecan-1 (SDC1) (Homo sapiens, UniProt P18827)
T1 sequence (P18827 23-310): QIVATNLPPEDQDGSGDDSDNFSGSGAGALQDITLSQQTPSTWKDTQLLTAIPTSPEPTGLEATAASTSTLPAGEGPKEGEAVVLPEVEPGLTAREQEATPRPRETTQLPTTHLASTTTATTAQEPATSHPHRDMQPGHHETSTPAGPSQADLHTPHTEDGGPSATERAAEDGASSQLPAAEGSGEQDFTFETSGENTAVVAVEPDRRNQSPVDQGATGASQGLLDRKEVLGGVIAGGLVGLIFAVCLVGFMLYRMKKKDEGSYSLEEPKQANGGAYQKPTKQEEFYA


How the values were obtained:
rabbit corneas = details: after refractive surgery; cited from earlier work
human patients = details: controlled clinical studies; cited from earlier work
syndecan-1 (SDC1) = molecular target: T1, syndecan-1 (SDC1); details: cited from earlier work
healthy rabbit model = details: cited from earlier work
corneal epithelial cell = details: in vitro; cited from earlier work

Molecule	reinnervation of corneas (rabbit corneas)	corneal sensitivity or visual acuity versus vehicle (artificial tears) (human patients)	binding and activation of syndecan-1 (syndecan-1 (SDC1))	basal tearing (healthy rabbit model)	corneal epithelial cell proliferation (corneal epithelial cell)
cenegermin: recombinant nerve growth factor	stimulated the reinnervation of rabbit corneas	failed to show significant benefit over vehicle			
Lacritin: endogenous glycoprotein initially identified in tears (protein, listed as Homo sapiens, Description of sequence: Lacritin, endogenous glycoprotein initially identified in tears) MKFTTLLFLAAVAGALVYAEDASSDSTGADPAQEAGTSKPNEEISGPAEPASPPETTTTAQETSAAAVQGTAKVTSSRQELNPLKSIVEKSILLTEQALAKAGKGMHGGVPGGKQFIENGSEFAQKLLKKFSLLKPWA			bind and activate	promote basal tearing	promote corneal epithelial cell proliferation
